Measured values published in patent US20100286035A1, “NEUROMEDIN U DERIVATIVE” (Takeda Pharmaceutical Company Limited, published 2010).
*1 amine or outer side, *2 acyl side, *3 side chain or, on linkers, in order; H or OH if unused. Primed or numbered codes have the meaning given here. Where no end group is shown, it is not given here. The star is where a group is joined. KMUS = cross-linking reagent joining N-terminal amine to thiol PEG, O=C1CC([*:3])C(=O)N1CCCCCCCCCCC(=O)[*:2]; GMBS = cross-linking reagent joining N-terminal amine to thiol PEG, O=C1CC([*:3])C(=O)N1CCCC(=O)[*:2]; SMCC = cross-linking reagent joining N-terminal amine to thiol PEG; Hexanoyl(6-succinimido-3yl) = O=C1CC([*:1])C(=O)N1CCCCCC(=O)[*:2]; AMBz = omega-aminocarboxylic acid linker (structure only drawn); AU″ = omega-aminocarboxylic acid linker (structure only drawn); ACP = omega-aminocarboxylic acid linker; Traut's reagent = N=C(CCCS)*; AB = not defined here; AD = not defined here; AP = not defined here; AU = not defined here

T1: human FM3 (NMUR1) (human)
T1 chain: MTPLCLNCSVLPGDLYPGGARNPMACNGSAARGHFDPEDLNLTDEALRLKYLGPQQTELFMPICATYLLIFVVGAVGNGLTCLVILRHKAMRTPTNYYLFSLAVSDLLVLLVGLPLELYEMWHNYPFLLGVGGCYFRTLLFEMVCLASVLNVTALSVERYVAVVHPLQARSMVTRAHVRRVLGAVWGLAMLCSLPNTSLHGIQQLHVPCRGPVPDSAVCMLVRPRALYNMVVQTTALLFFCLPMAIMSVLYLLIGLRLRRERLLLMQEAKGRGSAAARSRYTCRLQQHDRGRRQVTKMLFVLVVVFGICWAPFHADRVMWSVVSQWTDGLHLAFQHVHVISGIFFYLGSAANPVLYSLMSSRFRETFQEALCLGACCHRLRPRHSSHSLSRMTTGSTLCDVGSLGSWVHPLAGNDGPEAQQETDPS


What was measured:
human FM3 (NMUR1) [1] = molecular target: T1, human FM3 (NMUR1); assay: competition with 125I-NMU8, membrane fraction, filter binding; only one value in the row, read as the FM3 column
Method: (§1) The protein concentrations in the FM3 and TGR1 membrane fractions were 12 and 22 μg/ml, respectively.
(§2) Namely, dilution strings of NMU derivatives and PEG conjugates were provided and diluted membrane fraction solutions (200 μl) were added. The mixture was thoroughly blended with a Vortex and the labeled ligand 2 μl (final concentration […]) was added to carry out the reaction at 25° C. for 60 min. According to the aforementioned operations, the amount of binding of the labeled ligand remaining in the filter was measured and the IC50 values were calculated using graph pad PRISM (FIG. 4A (FM3 receptor binding), FIG. 4B (TGR1 receptor binding), FIG. 4C (FM3 receptor binding), FIG. 4D (TGR1 receptor binding) Table 9).

human FM3 (NMUR1) [2] = molecular target: T1, human FM3 (NMUR1); assay: competition with 125I-NMU8, human FM3/CHO membrane fraction, filter binding
Method: as §1, §2

human TGR1 (NMUR2) [3] = molecular target: human TGR1 (NMUR2) (human); assay: competition with 125I-NMU8, human TGR1/CHO membrane fraction, filter binding
Method: as §1, §2

human FM3 (NMUR1) [4] = molecular target: T1, human FM3 (NMUR1); assay: Scatchard analysis, radioligand filter binding, human FM3/CHO membrane fraction
Method: as §1

human TGR1 (NMUR2) [5] = molecular target: human TGR1 (NMUR2) (human); assay: Scatchard analysis, radioligand filter binding, human TGR1/CHO membrane fraction
Method: as §1

Chain of human TGR1 (NMUR2) (human) (chain, as listed by the source): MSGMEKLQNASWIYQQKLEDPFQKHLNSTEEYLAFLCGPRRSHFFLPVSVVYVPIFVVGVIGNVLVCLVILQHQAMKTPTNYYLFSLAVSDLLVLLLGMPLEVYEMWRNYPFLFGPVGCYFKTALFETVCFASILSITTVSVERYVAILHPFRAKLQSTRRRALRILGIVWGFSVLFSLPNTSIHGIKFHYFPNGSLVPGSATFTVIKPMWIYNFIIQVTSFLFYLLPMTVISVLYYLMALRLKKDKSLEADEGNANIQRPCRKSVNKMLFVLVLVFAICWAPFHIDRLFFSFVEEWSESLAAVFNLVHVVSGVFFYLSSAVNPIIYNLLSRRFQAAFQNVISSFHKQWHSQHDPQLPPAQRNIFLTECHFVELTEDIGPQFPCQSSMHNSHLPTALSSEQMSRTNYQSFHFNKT

Binder	IC50 (human FM3 (NMUR1) [1]) [nM]	IC50 (human FM3 (NMUR1) [2]) [nM]	IC50 (human TGR1 (NMUR2) [3]) [nM]	Kd (human FM3 (NMUR1) [4]) [nM]	Kd (human TGR1 (NMUR2) [5]) [nM]
{PEG30k-ACP}-YFLFRPRN-NH2 [PEG30k(ACP)-NMU-8]	59	–	–	–	–
{(PEG20k)2-ACP}-YFLFRPRN-NH2 [(PEG20k)2(ACP)-NMU-8]	–	280	420	–	–
{PEG 30 kDa-AB}-YFLFRPRN-NH2 (reading uncertain; also: printed as PEG30k(AB)-NMU-8) [PEG30k(AB)-NMU-8]	82	–	–	–	–
{(PEG20k)2-AU}-YFLFRPRN-NH2 (reading uncertain; also: printed as (PEG20k)2(AU)-NMU-8) [(PEG20k)2(AU)-NMU-8]	–	330	560	–	–
{(PEG20k)2-AP}-YFLFRPRN-NH2 (reading uncertain; also: printed as (PEG20k)2(AP)-NMU-8) [(PEG20k)2(AP)-NMU-8]	230	–	–	–	–
{PEG 30 kDa-AD}-YFLFRPRN-NH2 (reading uncertain; also: printed as PEG30k(AD)-NMU-8) [PEG30k(AD)-NMU-8]	–	130	120	–	–
{PEG 30 kDa-AMBz}-YFLFRPRN-NH2 [PEG30k(AMBz)-NMU-8]	–	75	110	–	–
{(PEG20k)2-AMBz}-YFLFRPRN-NH2 [(PEG20k)2(AMBz)-NMU-8]	–	210	320	–	–
{(PEG20k)2-AB}-YFLFRPRN-NH2 (reading uncertain; also: printed as (PEG20k)2(AB)-NMU-8) [(PEG20k)2(AB)-NMU-8]	380	–	–	–	–
{(PEG20k)2}-YFLFRPRN-NH2 [(PEG20k)2-NMU-8]	–	270	210	–	–
{(PEG20k)2-AD}-YFLFRPRN-NH2 (reading uncertain; also: printed as (PEG20k)2(AD)-NMU-8) [(PEG20k)2(AD)-NMU-8]	–	380	730	–	–
YFLFRPRN-NH2 (also: 125I label (position not given here)) [125I-NMU8 (radiation labeled ligand)]	–	–	–	164000	135000
{PEG 30 kDa-AU″}-YFLFRPRN-NH2 [PEG30k(AU)-NMU-8]	–	60	54	–	–
{PEG 30 kDa-AP}-YFLFRPRN-NH2 (reading uncertain; also: printed as PEG30k(AP)-NMU-8) [PEG30k(AP)-NMU-8]	64	–	–	–	–

Other lines, results leading:

IC50 (human FM3 (NMUR1) [1]) [nM]	IC50 (human FM3 (NMUR1) [2]) [nM]	IC50 (human TGR1 (NMUR2) [3]) [nM]	Kd (human FM3 (NMUR1) [4]) [nM]	Kd (human TGR1 (NMUR2) [5]) [nM]	Binder
–	18	9.1	–	–	C(PEG 30 kDa)FFLFRPRN-NH2 [PEG30k(NHAc)-Cys-NMU-8]
–	11	11	–	–	{PEG 30 kDa-Hexanoyl(6-succinimido-3yl)}-YFLFRPRN-NH2 [PEG30k(EMCS)-NMU-8]
–	5.7	66	–	–	{PEG 30 kDa}-YFLFRPRN-NH2 [PEG30k-NMU-8]
–	6.7	9.4	–	–	{PEG 30 kDa-AMBz}-YFLFRPRN-NH2 (also: PEG attached by reductive amination (NH link) to linker) [PEG30k(NH-AMBz)-NMU-8]
–	6.4	–	–	–	{PEG‑maleimide 30 kDa-Traut's reagent}-YFLFRPRN-NH2 [PEG30k(Traut)-NMU-8]
–	11	11	–	–	{PEG 30 kDa}-YFLFRPRN-NH2 [PEG30k-NH-NMU-8]
–	7	32	–	–	{PEG 30 kDa-AD}-YFLFRPRN-NH2 (reading uncertain; also: PEG-aldehyde bound by reductive amination (NH linkage), printed as PEG30k(NH-AD)-NMU-8) [PEG30k(NH-AD)-NMU-8]
–	7.5	4.1	–	–	{PEG 30 kDa-GMBS}-YFLFRPRN-NH2 [PEG30k(GMBS)-NMU-8]
–	2.4	2.5	–	–	{PEG 30 kDa-AB}-YFLFRPRN-NH2 (reading uncertain; also: PEG attached by reductive amination (NH link) to linker, printed as Try-Phe-Leu-Phe-Arg-Pro-Arg-Asn-NH2) [PEG30k(NH-AB)-NMU-8]
–	18	22	–	–	{PEG 30 kDa-AU″}-YFLFRPRN-NH2 [PEG30k(NH-AU)-NMU-8]
–	7.3	7.9	–	–	{PEG 30 kDa-ACP}-YFLFRPRN-NH2 (also: PEG-aldehyde bound by reductive amination (NH linkage)) [PEG30k(NH-ACP)-NMU-8]
–	2.3	1.9	–	–	C(PEG 30 kDa)FFLFRPRN-NH2 [PEG30k-Cys-NMU-8]
–	51	26	–	–	{PEG 30 kDa-KMUS}-YFLFRPRN-NH2 [PEG30k(KMUS)-NMU-8]
–	6.3	6.9	–	–	{PEG 30 kDa-AP}-YFLFRPRN-NH2 (reading uncertain; also: printed as PEG30k(NH-AP)-NMU-8) [PEG30k(NH-AP)-NMU-8]
–	0.19	0.089	–	–	YFLFRPRN-NH2 [NMU-8]
–	4.5	4.3	–	–	{PEG 30 kDa-SMCC}-YFLFRPRN-NH2 [PEG30k(SMCC)-NMU-8]
